First the molecules themselves.
B9: full length CrkII, monomer (CrkII^FL monomer) (natural protein, human, UniProt P46108-1 1-304, looked up)
chain: MAGNFDSEERSSWYWGRLSRQEAVALLQGQRHGVFLVRDSSTSPGDYVLSVSENSRVSHYIINSSGPRPPVPPSPAQPPPGVSPSRLRIGDQEFDSLPALLEFYKIHYLDTTTLIEPVSRSRQGSGVILRQEEAEYVRALFDFNGNDEEDLPFKKGDILRIRDKPEEQWWNAEDSEGKRGMIPVPYVEKYRPASASVSALIGGNQEGSHPQPLGGPEPGPYAQPSVNTPLPNLQNGPIYARVIQKRVPNAYDKTALALEVGELVKVTKINVSGQWEGECNGKRGHFPFTHVRLLDQQNPDEDFS
modifications: biotin (EZ-Link NHS-PEG4-Biotin, 1:1 molar ratio) where it was immobilised (a1)
notes: full length human CrkII, printed as UniProt P46108-1, residues 1-330
B10: full length CrkII, dimer (CrkII^FL dimer) (natural protein, human, UniProt P46108-1 1-304, looked up)
chain: MAGNFDSEERSSWYWGRLSRQEAVALLQGQRHGVFLVRDSSTSPGDYVLSVSENSRVSHYIINSSGPRPPVPPSPAQPPPGVSPSRLRIGDQEFDSLPALLEFYKIHYLDTTTLIEPVSRSRQGSGVILRQEEAEYVRALFDFNGNDEEDLPFKKGDILRIRDKPEEQWWNAEDSEGKRGMIPVPYVEKYRPASASVSALIGGNQEGSHPQPLGGPEPGPYAQPSVNTPLPNLQNGPIYARVIQKRVPNAYDKTALALEVGELVKVTKINVSGQWEGECNGKRGHFPFTHVRLLDQQNPDEDFS
modifications: biotin (EZ-Link NHS-PEG4-Biotin, 1:1 molar ratio) where it was immobilised (a1)
notes: as for B9

Non-standard residues stand in square brackets, D forms with d. pY = N[C@@H](Cc1ccc(OP(=O)(O)O)cc1)C(=O)O

Series [1] deals with T1, CrkII N-terminal SH3 domain (CrkII^NSH3, residues 134-191) (human, UniProt P46108-1 134-191).
T1 construct: human CrkII NSH3 domain, UniProt P46108-1, residues 134-191; Amine coupled to a CM5 chip in a2; analyte in a4; in the syringe in ITC
The series is described as follows: SPR; CrkII NSH3 amine coupled to a CM5 chip, PRM peptides as analytes (100 µM-100 nM); Biacore S200, 20 °C, HBS-TP; steady state, 1:1 model. The following applies: both partners purified. (In general: SPR reads the build-up and loss of mass on a sensor chip optically.)

The target in series [2] is B10. The series is described as follows: SPR; biotinylated adapter proteins captured with a biotin CAPture kit, pY peptides as analytes; Biacore 8K+, 20 °C, HBS-TP (20 mM HEPES pH 7.4, 150 mM NaCl, 1 mM TCEP, 0.005% Tween-P20) with 2% DMSO; 1 M NaCl regeneration; steady state, 1:1 model. The following applies: both partners purified.
For series [3], the target named is T2, CrkII SH2 domain (CrkII^SH2, residues 6-120) (human, UniProt P46108-1 6-120, biotin (EZ-Link NHS-PEG4-Biotin, 1:1 molar ratio) where it was immobilised (a1)).
T2 construct: human CrkII SH2 domain, UniProt P46108-1, residues 6-120; The His tag is TEV-cleavable and was cleaved 'when required'
The description is as above. The following applies: both partners purified.

The target of series [4] is B9. Described as above. The following applies: both partners purified.
Series [5] concerns the molecule itself. The series is described as follows: SEC; single purified proteins on Superdex 200 (purification and re-runs), 20 mM HEPES pH 7.5–8.5, 150 mM NaCl, 1 mM TCEP; oligomeric state. (Size exclusion chromatography separates by hydrodynamic size, large species first.)
Series [6] concerns the molecule itself. The series is described as follows: SEC; S75 16/600 profile of the purified CrkII constructs, with SDS-PAGE of fractions.
The target of series [7] is T3, PEAK2^IDR1 (residues 802-1406), from insect cells, phosphorylated by Src (human, UniProt Q86YV5 802-1406, phosphorylated with Src kinase, sites not stated; phosphorylation of the tandem site 14-3-3 motif (RAASSP) found by proteomic analysis; biotin (EZ-Link NHS-PEG4-Biotin, 1:1 molar ratio)).
T3 construct: human PEAK2 (SgK223, PRAG1), UniProt Q86YV5, residues 802-1406; also called PEAK2-IDR1 (+ Src phosphorylation); source: Sf21 insect cells, purified; phosphorylated in vitro with recombinant Src kinase domain
T3 sequence (looked up): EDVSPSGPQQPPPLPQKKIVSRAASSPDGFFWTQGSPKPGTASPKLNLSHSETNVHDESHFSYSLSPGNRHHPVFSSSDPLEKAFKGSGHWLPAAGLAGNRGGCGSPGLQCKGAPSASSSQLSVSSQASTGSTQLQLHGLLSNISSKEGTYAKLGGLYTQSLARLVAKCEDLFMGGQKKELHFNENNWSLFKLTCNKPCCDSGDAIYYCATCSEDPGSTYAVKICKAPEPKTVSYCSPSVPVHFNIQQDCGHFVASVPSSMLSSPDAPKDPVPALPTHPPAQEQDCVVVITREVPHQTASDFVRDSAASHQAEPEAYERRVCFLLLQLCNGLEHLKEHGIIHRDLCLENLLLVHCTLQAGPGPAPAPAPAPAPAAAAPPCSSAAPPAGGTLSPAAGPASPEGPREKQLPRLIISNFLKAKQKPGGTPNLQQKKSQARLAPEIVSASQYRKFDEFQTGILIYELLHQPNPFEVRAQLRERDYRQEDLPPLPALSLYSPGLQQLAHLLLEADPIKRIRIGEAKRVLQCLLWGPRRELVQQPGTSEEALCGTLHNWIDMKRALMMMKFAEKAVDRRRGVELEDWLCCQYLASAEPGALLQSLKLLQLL
The series is described as follows: SPR; biotinylated PEAK proteins (with or without Src phosphorylation) captured with a biotin CAPture kit; Grb2 FL, Grb2 SH2, CrkII SH2, CrkII FL monomer or dimer as analytes; Biacore 8K+, 20 °C, HBS-TP with NaCl raised to 500 mM; 1 M NaCl regeneration; steady state. The conditions noted are these: both partners purified.

The target in series [8] is T4, PEAK1^IDR1 (residues 1082-1746), from insect cells, phosphorylated by Src (human, UniProt Q9H792 1082-1746, phosphotyrosine at Y1107 (by Src in vitro, shown by MS/MS); other Src sites not stated; biotin (EZ-Link NHS-PEG4-Biotin, 1:1 molar ratio)).
T4 construct: human PEAK1, UniProt Q9H792, residues 1082-1746; also called PEAK1-IDR1 (+ Src phosphorylation); source: Sf21 insect cells, purified; phosphorylated in vitro with recombinant Src kinase domain
T4 sequence (looked up): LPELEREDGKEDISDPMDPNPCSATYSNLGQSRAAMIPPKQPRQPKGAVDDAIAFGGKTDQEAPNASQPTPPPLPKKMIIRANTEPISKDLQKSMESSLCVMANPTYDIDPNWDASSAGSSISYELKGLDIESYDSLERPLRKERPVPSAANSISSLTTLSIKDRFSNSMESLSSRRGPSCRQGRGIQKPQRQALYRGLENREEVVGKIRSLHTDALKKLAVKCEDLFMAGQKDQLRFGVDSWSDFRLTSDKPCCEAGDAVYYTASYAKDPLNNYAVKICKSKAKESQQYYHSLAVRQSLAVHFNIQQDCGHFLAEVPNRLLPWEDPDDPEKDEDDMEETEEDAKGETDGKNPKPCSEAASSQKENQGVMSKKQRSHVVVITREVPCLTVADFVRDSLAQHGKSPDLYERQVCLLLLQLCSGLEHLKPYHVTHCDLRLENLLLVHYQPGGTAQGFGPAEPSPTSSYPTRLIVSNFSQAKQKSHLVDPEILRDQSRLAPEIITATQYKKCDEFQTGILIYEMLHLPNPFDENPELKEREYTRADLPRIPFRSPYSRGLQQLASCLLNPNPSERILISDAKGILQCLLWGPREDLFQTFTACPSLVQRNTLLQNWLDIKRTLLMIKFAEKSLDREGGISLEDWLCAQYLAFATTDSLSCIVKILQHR
Described as above. The conditions noted are these: both partners purified.

The Kd is the free concentration of one partner at which half of the binding sites on the other are occupied at equilibrium, for simple one-to-one binding.

B1: PEAK2 809-821 proline-rich motif peptide (Ac-QPPPLPQKKIVSR-NH2) (peptide)
peptide: Ac-QPPPLPQKKIVSR-NH2
notes: human PEAK2 (SgK223, PRAG1) residues 809-821; source: synthetic peptide, bought: Mimotopes (95% purity)
Turning to B1, the Kd in series [1] was 2400 nM.

B2: PEAK1 1106-1121-pY1107 peptide (Ac-T(pY)SNLGQSRAAMIPPK-NH2) (peptide)
peptide: Ac-T[pY]SNLGQSRAAMIPPK-NH2
notes: human PEAK1 residues 1106-1121; source: synthetic peptide, bought: Mimotopes (95% purity)
As to B2, the Kd in series [2] was determined as 3100 nM; in series [3] it was 3200 nM; in series [4] it was 3500 nM.

B3: PEAK1^IDR1 (human PEAK1 residues 1082–1746) (domain or fragment, UniProt Q9H792 1082-1746, looked up)
chain: LPELEREDGKEDISDPMDPNPCSATYSNLGQSRAAMIPPKQPRQPKGAVDDAIAFGGKTDQEAPNASQPTPPPLPKKMIIRANTEPISKDLQKSMESSLCVMANPTYDIDPNWDASSAGSSISYELKGLDIESYDSLERPLRKERPVPSAANSISSLTTLSIKDRFSNSMESLSSRRGPSCRQGRGIQKPQRQALYRGLENREEVVGKIRSLHTDALKKLAVKCEDLFMAGQKDQLRFGVDSWSDFRLTSDKPCCEAGDAVYYTASYAKDPLNNYAVKICKSKAKESQQYYHSLAVRQSLAVHFNIQQDCGHFLAEVPNRLLPWEDPDDPEKDEDDMEETEEDAKGETDGKNPKPCSEAASSQKENQGVMSKKQRSHVVVITREVPCLTVADFVRDSLAQHGKSPDLYERQVCLLLLQLCSGLEHLKPYHVTHCDLRLENLLLVHYQPGGTAQGFGPAEPSPTSSYPTRLIVSNFSQAKQKSHLVDPEILRDQSRLAPEIITATQYKKCDEFQTGILIYEMLHLPNPFDENPELKEREYTRADLPRIPFRSPYSRGLQQLASCLLNPNPSERILISDAKGILQCLLWGPREDLFQTFTACPSLVQRNTLLQNWLDIKRTLLMIKFAEKSLDREGGISLEDWLCAQYLAFATTDSLSCIVKILQHR
modifications: biotin (EZ-Link NHS-PEG4-Biotin) where immobilised for SPR; no phosphorylation observed at the tandem 14-3-3 motif
notes: human PEAK1 residues 1082-1746 (part of the IDR with Y1107 and the tandem site, SHED and PsK domains); the His tag is TEV-cleavable; also called PEAK1^IDR1 dimer; not shown: His tag, N-terminal, kept
On to B3, for which the binding result in series [5] was “binds”.

B4: PEAK SH2-pY consensus peptide (Ac-T(pY)SNLGQ-NH2) (peptide)
peptide: Ac-T[pY]SNLGQ-NH2
notes: also called consensus pY peptide; SH2-pY peptide; source: synthetic peptide, bought: Mimotopes (95% purity)
Take B4: the values for the Kd in series [2], in series [3] and in series [4] were 12700 nM, 8800 nM and 14500 nM, respectively.

B5: CrkII SH2 domain (CrkIISH2) (domain or fragment, human, UniProt P46108-1 6-120, looked up)
chain: DSEERSSWYWGRLSRQEAVALLQGQRHGVFLVRDSSTSPGDYVLSVSENSRVSHYIINSSGPRPPVPPSPAQPPPGVSPSRLRIGDQEFDSLPALLEFYKIHYLDTTTLIEPVSR
modifications: biotin (EZ-Link NHS-PEG4-Biotin) in the SPR experiment only
notes: CrkII, human, UniProt P46108-1, residues 6-120; Purifies as monomer with a proportion of dimer
Consider B5, for which the binding result in series [6] is given as “binds”.

B6: CrkII SH2 domain (CrkII^SH2, residues 6–120) (domain or fragment, human, UniProt P46108-1 6-120, looked up)
chain: DSEERSSWYWGRLSRQEAVALLQGQRHGVFLVRDSSTSPGDYVLSVSENSRVSHYIINSSGPRPPVPPSPAQPPPGVSPSRLRIGDQEFDSLPALLEFYKIHYLDTTTLIEPVSR
modifications: biotin (EZ-Link NHS-PEG4-Biotin) where immobilised for SPR
notes: human CrkII residues 6-120, SH2 domain
For B6, the binding result in series [5] is “binds”.

B7: CrkII SH2-NSH3 construct lacking the CSH3 domain (CrkIIΔCSH3) (domain or fragment, human, UniProt P46108-1 1-228, looked up)
chain: MAGNFDSEERSSWYWGRLSRQEAVALLQGQRHGVFLVRDSSTSPGDYVLSVSENSRVSHYIINSSGPRPPVPPSPAQPPPGVSPSRLRIGDQEFDSLPALLEFYKIHYLDTTTLIEPVSRSRQGSGVILRQEEAEYVRALFDFNGNDEEDLPFKKGDILRIRDKPEEQWWNAEDSEGKRGMIPVPYVEKYRPASASVSALIGGNQEGSHPQPLGGPEPGPYAQPSVNT
notes: CrkII, human, residues 1-228
For B7, in series [6], the binding result was “binds”.

B8: CrkII^∆CSH3 (SH2-NSH3, residues 1–228) (domain or fragment, human, UniProt P46108-1 1-228, looked up)
chain: MAGNFDSEERSSWYWGRLSRQEAVALLQGQRHGVFLVRDSSTSPGDYVLSVSENSRVSHYIINSSGPRPPVPPSPAQPPPGVSPSRLRIGDQEFDSLPALLEFYKIHYLDTTTLIEPVSRSRQGSGVILRQEEAEYVRALFDFNGNDEEDLPFKKGDILRIRDKPEEQWWNAEDSEGKRGMIPVPYVEKYRPASASVSALIGGNQEGSHPQPLGGPEPGPYAQPSVNT
notes: human CrkII residues 1-228, lacking the CSH3 domain
Regarding B8, in series [5], the binding result is given as “binds”.
Take B9: the Kd in series [7] was found to be 2120 nM; in series [8] it was 1500 nM.
In the same order, the values of B10 are 1380 nM and 1490 nM.

B11: PEAK1 1150-1162 proline-rich motif peptide (Ac-PTPPPLPKKMIIR-NH2) (peptide)
peptide: Ac-PTPPPLPKKMIIR-NH2
notes: source: synthetic peptide, bought: Mimotopes (95% purity)
Turning to B11, the Kd in series [1] is 900 nM.

(Values after paper PMC10279719 (Nature Communications, 2023).)
